Test results published in the NTF2 design screens of Basanta et al. (2020).

Assay: protease stability score; higher = more stable; yeast display proteolysis, trypsin and chymotrypsin;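 further: relative to predicted unfolded state with 0 unfolded-like and 1 meaning tenfold more protease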

Sequence	protease stability score
HEEEKHREDFVRTWLHNLITGNFEHHRHLADPRVRIRIIVDGREQRIHGREEMIRWFREWMELFPGYYRHIEHSDIIGEYVHIEGQLEVNGKRLDVHIHLEVINGKIKHLTIDSR	1.09
HEEEKIIEEASKRWLELMQTGDEDKVLHYLDPEYRSEWDGVEIHGRETFRKWLLDLLRKFKGLRFEFRDVRDVGDKVRIIGTVTYDGKVRDTRIDVVIVNGRYKSMEIHFN	1.69
HEEEKLARTFSEVVERSLYTGDEDSLKRLMDPHVRMNVNGVRHIGMELAKEWLHRYIRQLGIDHSTIRHSHDEIQGEKVIVRLHGELVYNGVSREVELIIHVNKVNGVWTISELLVILK	1.25
HEEEKLNHLWYEIVVHLLLTGNWKEIKKNADPHARSDINGVEYHGREEVSEVLHHVMKKMGAKVFREKEHDHQGEYMHIHFEIRVGDKLVESTLISLKVDGRWIHHEYREK	1.37
HEEEKQIHDIIEIIIRLLVTGNEEIHKRLADPHVRVEVGDKHFHGREEVTKFLMRIDHVQHVDHRIHRMDIIDGRADVHGDLLIDGDFDGRRTRTDIRVRWRIIKIDGRWILHSYSVL	1.24
HEEEKQMREAVEEAYHVLRTGDEKTIRELADPDVRLDINGKEIIGRELFFRHLWYEFYFFKNMRITIKHYEIQGEKVHIHIEIDWNGKELRSHMEVDKVDGRWLLHSVIFR	0.783
HEEEKSRKKEFEEYVRSVKTGDERLLTEMADPNARVHIGDKTLIGRELMHEMWHEQLKQIDVFHDIKTTHSEVQGDKIHMHVVEDIIIGDKRHTIRLRMIAWKFNGKWLVEEVRFE	0.435
HEEEQEIEKIVEDILRAWETGDWKTFYELADPHTKHTLIQGDKHIHRHGRDRMSDLLEELLKRFKGAIVDIKDIKWIDGQLNMTGELQIGDKKHKVHLHMNFIDGKIKRIEIRVD	1.13
HEEERDAEKLIRIWYHYLVTGDEERLLELLDPSTRMDINGVTHHGMEIVRDALHDLLRHLGVKVFRDIHIESVEIQGEKVITRMHVLFEVDGQELRIDSILFSHKINGKWLIEMHSKK	1.23
HEEERDLEHWDELLLKSITTGDWRILTKLVDPHARIIILVNGKLITHIGREYVYHLLLRFDHIRTHDFRTNIQGDYIDHHIEGKLHVNGKDMDSHIINHSEKVDGRWTVHTVNIEFI	1.22
HEEEREAHEMLRIIVHAIRTGDEELLMRYLDPDVRMILLVDGVEVHRIGREEASKLISELWHHIRLKDLKVREIDNQGEYSHVRTERDGEVNGKKNTLETELDIIVIDGRVTDVTIRIR	1.1
HEEERHREEIMERLLTAIKTGDPKITRELIDPHTRIEIGDKNLHGMEIWLKYIHTLFEKFPNLTLRIEDSHAQGEKFIIVIRLRFDGREVNLVLYYTIVNGRIKTIEIEEK	1.43
HEEERILRFYLEWIEHHLRTGDERFIEENADPNVKIRVNGKDIHGRERYNEVWDKVLRDFGVDHTNDKDTTAYDGRIEVHEEWRFNGRRVDVETIIIFINGVIKHIEIRIRIE	2.12
HEEERIVEEVAKHFLHHFVTGDWHNLARLADPHVRSDINGRELHGWETLIHVMLKDLRRLGFKHFEVHHVHIQGDKYHNDGTLDYNGVKVRSHLEFQIVDGKLHQMRVQDK	1.07
HEEERLAREYMKRLIHDWVTGDEREHLKLLDPDVRFVQGDKHHHGREEMMRWFQEIRVEDLKHTDEKVYGEKAFVTGHTTWNINGQKIEVKVHYEFVVVNGRVKMIRIDVQ	1.22
HEEETHWRSLTHLFAEWIITGNEDLYMELADPHYLIEIDGKTQHGRENANEVHETFWKDYGFKHRHVRSVRQVGDFVEIEVNLLFNGQRYDMHIHVFVIDGKLKEIHVSLK	1.33
HEEHDEMQEALRRFIDILHTGDEKERKELADPHVRIDVDGVDHHGREWLTKWTVRLAREMRIHPEIKHSEVFNGQIELHTSEKVDFNGVHEIIESFLLVIKINGRWFLTHVQVH	0.92
HEEHEEAWHEIELTYHLLNTGDFDEMNRLLDPNVRIHIGDKRYHGRHELDLLITKLGVKHVRWEVKHADIQGDKVDMDTIVHITQGDKEIRRDTRIKIRKIDGKWFVTELHVT	1.28

Sequence	protease stability score
HEEHEKLRQLIEWYLEMLRTGDEESWLHLADPHVRNDVIYDGRHFQSHGRDRALDLLRLMLDLLGAKHLEVKRYRVIDGRVELDGRSRVGDKYQEMHLHLDVFNGRIHEMRIEIR	0.58
HEEHESLRRATRHELQTLETGDEDLFEKLVDPNYKVVINGVELHGMHELRRWIIELRIDDFELHDVNVVNGRASIDGTMHTHVNGQRLERKVRIHIEKINGRWVRREYIYH	0.726
HEEHKHVKELAEMLIEWFLTGDEETTLDMADPDVRIDINGVDKIGRETVVEFKKRQHRDLGWDNIRFRPTHINAFDGRINIEGVIIVNGVTFKTEFRFEVINGRLKLDKWIVR	0.661
HEEKELVNRSVELSYRVLKTGDEHTLEELLDPDAKTRLNINGKNEKLVGRENVLHIVTWFLDFLGIKHVELRDVRYVGDKVHIDMQIDVNGRHSRWHLIAEKIDGRWFMHSIQVEVH	0.18
HEEKENIEQFMRDLLHNWTTGNFEKIKEFLDPNTRIDWNGKDIHGRETESEEVKKYGIDHMSIILRHHTVQGDYAHIDTEIKIDINGRKIHIDARIDLLKINGRWVQKHVLYL	1.3
HEEKHEVQRFLEMLIELLVTGNEEILEHLADPHVRLEIDGRHFHGWKEFTRQYSELLKKLGADHVDMKIHEVHIIGDKVFIRGTDEFRVGDKTERKESHWVLLKVDGRWFIHSVKIG	1.99
HEEKHLMDEALELIKYFTETGDERQLTEYADPNVRIDIDGQRFHGREDWEELVREWNSRFKNLKFNFREIDVQGEFIHTRGELNVNGKRFDVRIVSDKINGRWILHSIHFE	1.58
HEELELRRRVLENWTKNMITGNEEETKKLADPNVRIDIDGVELHGMDIWYEYMRHIRIKIQHIERKDVKDYDGKVEVDADSHVEMEVNGKLTSTRRKLIFIHLKVDGRWVIHSISFH	0.823
HEENKELEDLLRVWMELVETGDEEELLKLADPDWRLDINGRRIHGRDKVLTWLREHREKLGVDHRHLFLKDVRTVNGRVDANGENEVQVNGKRIVIDIRFHLVVINGRIHMISLRLH	1.15
HEEQELLEEFVEKLRQTLETGDEHFTRELLDPNVRYVQGDKEWHGRDLAAELNKKLGIKVVDIKHVRYWNGRLDLRGEDQVGDKTTHTILHVDKFNGRWFYKEVIFV	0.721
HEEQKAIEEWAKRLWDVLLTGDEDELHELLDPHVKLEVHVDGKTIHRHGREEVIRFMVEMRIRDFKIEHVQMYGDKLHMNTRSRGIYNGKHRETEVSIIVTVVNGRLKMIIIEIR	2.06
HEERDLAMHVIKRFIDSTVTGNEQDLTKLLDPHVRIEQGEYHDHGWKYAQLMIERFRNVRIELRIHFIRVQGDKVQVDIDWEVHIGDKVISSRLEMYIIKVNGVWLIRYVIFE	0.854
HEESEDATRFLHQVIHALYTGDEKRFDELLDPRMRLHIGDKQHVGRENVSEFLLHLRIRHVHVHDFRVFDGRLHVDQTLDGEYDGRRREIHFELQITKINGRWFLNHFWIR	1.35
HEHDQKSNKMSEILMELWKTGNEDWMDKLVDPNARTDIEVGDKRIENVGMEELHKWLFDHHRRIKGIKIIHRTMEVVGDKVTLHLELRFNGVRVEIIIRLIVIDGRVHSQHYEVRTE	0.59
HEHEEELHRVFKIFLELWTTGDEESMERLLDPNARWVELQGDKELTLIGRENARNRFKEIFDLAGFKYMHLDHEDIQGEKTRFEMTVEYDGRRTRMLLKIVVINGRVKVVKLEER	1.32
HEHEEELREFLRLWIEDLVTGNEDSLREFADPNMRIEQGDKEHHGREQFLEIMHRLVREARLEIILRRMNIFDGKANIDGELMIRIGDKHIRHHLRIIILKIDGVWLLKSIHVR	1.94
HEHEEEVRSMTRLFLHAFVTGDWRTIVELIDPNVRTWFNGKDDHGRESLFKNLIRVLEEFGADHVDITIEEMEVQGNKVRVKMIIEVIVGDKDLRLSINQQAYKVDGRWRVKEIIIH	0.725
HEHEELIRWAVELLEHNTRTGDEETLIRLADPNVRMIFDGRDLVGRDWLLEFEERLGADHVELEFRHVRIIDGRVHVNGIMRHEFDGVRVERRTTIIVKKINGRWNNRTVEFR	0.529
